From patent US20240116985A1 (published 2024)
Starred links: 1 amine or outer side, 2 acyl side, 3 side chain; linkers in the order of their positions; H or OH if unused. Positions of bridges follow the written chain, without caps; N, C: chain ends. Non-standard residues stand in square brackets, D forms with d. Primed or numbered codes have the meaning given here. PyrS2″ = (S)-3-amino-1-((pent-4-en-1-yloxy)carbonyl)pyrrolidine-3-carboxylic acid (stapling residue), C=CCCCOC(=O)N1CC[C@@](N[*:1])(C(=O)[*:2])C1; B5(4) = 2,2-bis(4-pentenyl)glycine = 2-amino-2-(pent-4-en-1-yl)hept-6-enoic acid (stitching residue), C=CCCCC(CCCC=C)(N[*:1])C(=O)[*:2]; (EtSSpy)GluE = (S)-2-amino-5-oxo-5-(2-(pyridin-2-yldisulfaneyl)ethoxy)pentanoic acid, O=C(CC[C@H](N[*:1])C(=O)[*:2])OCCSSc1ccccn1; (EtSSPh)GluE = (S)-2-amino-5-oxo-5-(2-(phenyldisulfaneyl)ethoxy)pentanoic acid, O=C(CC[C@H](N[*:1])C(=O)[*:2])OCCSSc1ccccc1; (EtSSPh)AspE = (S)-2-amino-4-oxo-4-(2-(phenyldisulfaneyl)ethoxy)butanoic acid, O=C(C[C@H](N[*:1])C(=O)[*:2])OCCSSc1ccccc1; (EtSSHex)AspE = (S)-2-amino-4-(2-(hexyldisulfaneyl)ethoxy)-4-oxobutanoic acid, CCCCCCSSCCOC(=O)C[C@H](N[*:1])C(=O)[*:2]; B5(3) = 2,2-bis(4-pentenyl)glycine (stitching residue), C=CCCCC(CCCC=C)(N[*:1])C(=O)[*:2]; GluSH = (S)-2-amino-5-mercapto-5-oxopentanoic acid, O=C(CC[C@H](N[*:1])C(=O)[*:2])S[*:3]; B5 = 2-amino-2-(pent-4-en-1-yl)hept-6-enoic acid, C=CCCCC(CCCC=C)(N[*:1])C(=O)[*:2]; Phe(3-COOH) = N[C@@H](Cc1cccc(C(=O)O)c1)C(=O)O; Phe(3-Cl) = N[C@@H](Cc1cccc(Cl)c1)C(=O)O; Phe(4-Cl) = N[C@@H](Cc1ccc(Cl)cc1)C(=O)O; Phe(4-NH2) = Nc1ccc(C[C@H](N)C(=O)O)cc1; Bta = N[C@@H](Cc1csc2ccccc12)C(=O)O; αAllylPro = C=CC[C@@]1(C(=O)O)CCCN1; tBuAla = CC(C)(C)C[C@H](N)C(=O)O; 2Thi = N[C@@H](Cc1cccs1)C(=O)O; 3Thi = N[C@@H](Cc1ccsc1)C(=O)O; S8 = C=CCCCCCC[C@](C)(N)C(=O)O; hSer = N[C@@H](CCO)C(=O)O

T1: B-cat-Halo (beta-catenin HaloTag NanoBRET construct expressed in HEK293 cells) (UniProt P35222 1-781)
T1 sequence (looked up): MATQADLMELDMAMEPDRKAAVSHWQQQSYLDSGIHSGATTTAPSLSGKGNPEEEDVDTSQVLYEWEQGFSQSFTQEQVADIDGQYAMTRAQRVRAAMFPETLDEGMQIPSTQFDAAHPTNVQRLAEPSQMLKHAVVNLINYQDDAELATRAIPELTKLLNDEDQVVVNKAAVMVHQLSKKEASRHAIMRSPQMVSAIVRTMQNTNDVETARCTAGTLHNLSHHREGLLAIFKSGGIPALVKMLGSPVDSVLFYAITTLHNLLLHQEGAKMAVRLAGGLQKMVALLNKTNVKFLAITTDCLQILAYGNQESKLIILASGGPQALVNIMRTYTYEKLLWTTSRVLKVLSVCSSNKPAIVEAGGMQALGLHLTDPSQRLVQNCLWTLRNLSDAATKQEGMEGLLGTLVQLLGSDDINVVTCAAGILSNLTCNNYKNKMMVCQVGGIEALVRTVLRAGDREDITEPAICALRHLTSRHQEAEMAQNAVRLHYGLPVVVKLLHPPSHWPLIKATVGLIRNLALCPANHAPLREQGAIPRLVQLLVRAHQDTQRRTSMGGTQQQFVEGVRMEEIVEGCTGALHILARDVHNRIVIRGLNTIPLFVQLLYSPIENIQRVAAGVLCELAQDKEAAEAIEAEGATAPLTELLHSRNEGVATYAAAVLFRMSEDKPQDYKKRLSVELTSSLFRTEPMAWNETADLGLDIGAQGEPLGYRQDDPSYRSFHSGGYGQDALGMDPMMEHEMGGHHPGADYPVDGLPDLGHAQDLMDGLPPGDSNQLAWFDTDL

T2: full-length beta-Catenin (Uniprot ID P35222) (Homo sapiens (Human), UniProt P35222 1-781)
T2 construct: the AlphaScreen used a Histidine (Nickel Chelate) detection kit, so a His tag is likely but not described; also called B-Catenin; bCat
T2 sequence: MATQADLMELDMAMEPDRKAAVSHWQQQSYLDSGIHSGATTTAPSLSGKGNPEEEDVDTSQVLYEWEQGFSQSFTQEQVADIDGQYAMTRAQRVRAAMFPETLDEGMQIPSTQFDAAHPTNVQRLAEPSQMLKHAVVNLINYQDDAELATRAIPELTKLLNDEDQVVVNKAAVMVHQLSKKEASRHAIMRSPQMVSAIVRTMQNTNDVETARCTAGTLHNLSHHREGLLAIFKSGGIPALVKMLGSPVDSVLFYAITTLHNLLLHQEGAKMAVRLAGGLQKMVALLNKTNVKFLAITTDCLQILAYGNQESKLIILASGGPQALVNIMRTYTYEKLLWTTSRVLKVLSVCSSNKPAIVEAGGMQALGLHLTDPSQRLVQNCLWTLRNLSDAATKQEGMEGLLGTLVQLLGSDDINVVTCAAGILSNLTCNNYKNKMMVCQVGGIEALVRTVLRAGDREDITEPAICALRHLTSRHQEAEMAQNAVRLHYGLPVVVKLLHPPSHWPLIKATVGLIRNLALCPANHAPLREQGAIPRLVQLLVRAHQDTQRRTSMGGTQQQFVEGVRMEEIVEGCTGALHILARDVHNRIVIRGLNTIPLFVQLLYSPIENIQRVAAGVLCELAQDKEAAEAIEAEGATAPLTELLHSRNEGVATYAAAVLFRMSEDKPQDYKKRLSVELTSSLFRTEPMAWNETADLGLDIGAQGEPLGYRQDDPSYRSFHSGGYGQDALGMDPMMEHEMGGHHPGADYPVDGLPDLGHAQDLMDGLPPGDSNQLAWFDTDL

T3: B-cat-Halo (UniProt P35222 1-781)
T3 sequence (looked up): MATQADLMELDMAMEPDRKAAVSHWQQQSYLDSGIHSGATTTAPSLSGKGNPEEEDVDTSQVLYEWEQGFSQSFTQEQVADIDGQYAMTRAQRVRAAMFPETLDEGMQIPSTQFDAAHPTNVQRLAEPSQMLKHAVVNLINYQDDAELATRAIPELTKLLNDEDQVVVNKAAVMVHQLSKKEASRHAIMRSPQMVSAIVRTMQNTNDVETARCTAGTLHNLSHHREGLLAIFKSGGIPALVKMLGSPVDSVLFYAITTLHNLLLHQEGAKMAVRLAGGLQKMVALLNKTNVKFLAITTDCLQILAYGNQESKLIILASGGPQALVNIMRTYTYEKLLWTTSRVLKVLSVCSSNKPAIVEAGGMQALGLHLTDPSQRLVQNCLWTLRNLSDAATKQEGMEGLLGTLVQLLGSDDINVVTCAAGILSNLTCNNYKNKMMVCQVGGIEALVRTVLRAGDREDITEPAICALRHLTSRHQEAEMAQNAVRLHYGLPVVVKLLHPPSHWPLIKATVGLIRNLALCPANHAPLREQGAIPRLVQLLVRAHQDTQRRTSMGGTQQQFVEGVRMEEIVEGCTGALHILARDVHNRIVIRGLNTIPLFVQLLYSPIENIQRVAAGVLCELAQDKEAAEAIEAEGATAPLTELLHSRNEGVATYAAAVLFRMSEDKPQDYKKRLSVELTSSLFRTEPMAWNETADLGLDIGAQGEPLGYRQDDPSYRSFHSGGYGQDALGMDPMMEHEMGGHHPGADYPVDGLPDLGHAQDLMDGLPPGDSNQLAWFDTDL


What was measured:
[1] = biological target: T1, B-cat-Halo (beta-catenin HaloTag …); assay: cell-based or functional assay
[2] = biological target: T2, full-length beta-Catenin (Uniprot ID …); assay: AlphaScreen competition vs biotin-TCF4(10-53) on full-length beta-catenin
Outline: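 Titrated peptide was preincubated 15 minutes at 20° C, then donor and acceptor beads were added for 60 minutes at 20° C protected from light. Reads were done in duplicate, and data were fitted to a 1:1 binding model with Hill slope; concentrations are final.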

[3] = biological target: T2, full-length beta-Catenin (Uniprot ID …); assay: FP competition vs 5FAM-TCF4(10-53) probe on full-length beta-catenin
Method: The plate was incubated protected from light for 60 minutes at 20° C. prior to read. Reads were performed on a CLARIOstar plate reader (BMG Labtech) in duplicate, and data were fitted to a 1:1 binding model with hill slope using an in-house script. All provided concentrations are final concentrations.

[4] = biological target: T3, B-cat-Halo; assay: cell-based or functional assay

Binder	NanoBRET Abs IC50 [1] [µM]	EC50 [2] [µM]	EC50 [3] [µM]	further results
XDAXDDAAFVXFWQ (not fully specified; N-terminal acetyl (Ac); C-terminal amide (NH2); PL3 at 1, B5 at 4, S8 at 11, 2FF at 12; stapled PL3-B5 and B5-S8, Ac-PL3-Asp-Ala-B5-Asp-Asp-Ala-Ala-Phe-Val-S8-2FF-Trp-Gln-NH2; stapled peptide composition) [I-318]		0.121		
XHAXDEAAFVXFWQ (not fully specified; N-terminal acetyl (Ac); C-terminal amide (NH2); PL3 at 1, B5 at 4, S8 at 11; stapled PL3-B5 and B5-S8, Ac-PL3-His-Ala-B5-Asp-Glu-Ala-Ala-Phe-Val-S8-Phe-Trp-Gln-NH2; stapled peptide composition) [I-314]		≥ 10		
Ac-[αAllylPro]DA[B5]DDAA[Phe(4-Cl)]V[S8]FWQ-NH2 (staple 1-4, 4-11; not fully specified; printed as Ac-PL3-Asp-Ala-B5-Asp-Asp-Ala-Ala-4C1F-Val-S8-Phe-Trp-Gln-NH2, Ac-PL3-Asp-Ala-B5-Asp-Asp-Ala-Ala-4C1F-Val-S8-Phe-Trp-Gln-NH2; stapled peptide composition) [I-309]		0.181	3.12	
Ac-[αAllylPro]DA[B5(4)]D[Phe(4-NH2)]AAFV[S8]FWQ-NH2 (staple 1-4, 4-11, Ac-PL3-Asp-Ala-B5-Asp-4AmPhe-Ala-Ala-Phe-Val-S8-Phe-Trp-Gln-NH2; stapled peptide composition) [I-324]		1.75		
Ac-[αAllylPro]DA[B5(4)]DDAA[2Thi]V[S8]FWQ-NH2 (staple 1-4, 4-11, Ac-PL3-Asp-Ala-B5-Asp-Asp-Ala-Ala-2Thi-Val-S8-Phe-Trp-Gln-NH2; stapled peptide composition) [I-325]		0.053	1.31	
XDAXDDAAFVXFWA (not fully specified; N-terminal acetyl (Ac); C-terminal amide (NH2); PL3 at 1, B5 at 4, S8 at 11; stapled PL3-B5 and B5-S8, Ac-PL3-Asp-Ala-B5-Asp-Asp-Ala-Ala-Phe-Val-S8-Phe-Trp-Ala-NH2; stapled peptide composition) [I-291]		0.327	3.13	
Ac-[αAllylPro]DA[B5]DDAAFQ[S8]FWA-NH2 (staple 1-4, 4-11, Ac-PL3-Asp-Ala-B5-Asp-Asp-Ala-Ala-Phe-Gln-S8-Phe-Trp-Ala-NH2; stapled peptide composition) [I-316]		0.136	3.98	
XDAXDDAAFVXFWA (not fully specified; N-terminal acetyl (Ac); C-terminal amide (NH2); PL3 at 1, B5 at 4, S8 at 11; stapled PL3-B5 and B5-S8, Ac-PL3-Asp-Ala-B5-Asp-Asp-Ala-Ala-Phe-Val-S8-Phe-Trp-Ala-NH2; stapled peptide composition) [I-292]		0.187	1.87	
Ac-[αAllylPro]D[tBuAla][B5(3)]D[Phe(3-COOH)]AAFL[PyrS2″][3Thi][Phe(3-Cl)]Q-NH2 (staple 1-4, 4-11) [I-2224]				NanoBRET Abs IC50 [4]: 14.2 µM
Ac-[αAllylPro]D[hSer][B5(4)]DDAAFQ[S8]F[Bta]A-NH2 (staple 1-4, 4-11, Ac-PL3-Asp-Hse-B5-Asp-Asp-Ala-Ala-Phe-Gln-S8-Phe-BztA-Ala-NH2; stapled peptide composition) [I-299]		0.189	1.3	

Now from value to binder, other results behind:

NanoBRET Abs IC50 [1] [µM]	EC50 [2] [µM]	EC50 [3] [µM]	Binder	further results
28.5			Ac-[αAllylPro]D[tBuAla][B5(4)]D[GluSH]AAFL[PyrS2″][3Thi][Bta]Q-NH2 (staple 1-4, 4-11; also: isomer composition, later eluting HPLC peak) [I-1949]	
> 20			Ac-[αAllylPro]D[tBuAla][B5(4)]D[(EtSSpy)GluE]AAFL[PyrS2″][3Thi][Bta]Q-NH2 (staple 1-4, 4-11) [I-1951]	
> 20			Ac-[αAllylPro][(EtSSPh)AspE][tBuAla][B5(4)]DDAAFL[PyrS2″][3Thi][Bta]Q-NH2 (staple 1-4, 4-11; also: isomer composition, earlier eluting HPLC peak) [I-1952]	
> 20			Ac-[αAllylPro]D[tBuAla][B5(4)]D[(EtSSHex)AspE]AAFL[PyrS2″][3Thi][Bta]Q-NH2 (staple 1-4, 4-11) [I-1962]	
> 20			Ac-[αAllylPro]D[tBuAla][B5(4)]D[(EtSSPh)GluE]AAFL[PyrS2″][3Thi][Bta]Q-NH2 (staple 1-4, 4-11; also: isomer composition, later eluting HPLC peak) [I-1958]	
> 20			Ac-[αAllylPro][(EtSSHex)AspE][tBuAla][B5(4)]DDAAFL[PyrS2″][3Thi][Bta]Q-NH2 (staple 1-4, 4-11; also: isomer composition, earlier eluting HPLC peak) [I-1959]	
